Earlier results in publication PMC8353491.
pKd: −log10 of the molar value.

Biological target: Ubc9 (Homo sapiens) (UniProt P63279)
Chain of UniProt P63279 (P63279 2-158): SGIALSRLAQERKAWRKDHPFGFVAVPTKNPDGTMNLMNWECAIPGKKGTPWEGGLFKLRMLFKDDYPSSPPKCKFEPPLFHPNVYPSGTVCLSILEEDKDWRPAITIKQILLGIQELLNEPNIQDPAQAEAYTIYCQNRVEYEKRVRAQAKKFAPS

pKd: 7.09
Substance: SUMO1 (from UniProt P63165)
